Measured values published in the nanobody polyreactivity screen of Harvey et al. (2022).

Test: yeast display, Sf9 membrane polyspecificity reagent, FACS + sequencing; frameworks hold sequencing errors
Procedure, shortened: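 In a synthetic yeast display library (Saccharomyces cerevisiae BJ5465), nanobody expression was induced with galactose for 36–48 hours. FACS gates were set low and high (top ~1%) using anti-HA fluorescence for expression and streptavidin fluorescence for binding of the Sf9 membrane reagent. Each polyreactivity label is drawn from the gate of origin.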

Row | Sequence | polyreactivity (PSR sort gate)
1 | QVQLVESGGGLVQAGGSLRLSCAASGRIIADNAMGWYRQAPGKERELVATISSGGSTSYADSVKGRFTISRDNAKNTVYLQMNSLKPDDTAVYYCATPYTGPSRPYDYWGQGTQVTVSS | low polyreactivity
2 | QGQLVESGVGLVQAGGSLSLSCAASGSILNNYAMAWYIQAPGKERELVAAISSSGGTNYADSVKGRFTISRDNAKNTVYLQMNSLKPEDTAVYYCNADVLDGGYDYWGQGTQVTVSS | low polyreactivity
3 | QVQLVESGGGLVQAGGSLRLSCAASGSIFWVYAMGWYRQAPGKERELVAAISNSGSTNYADSVKGRFTISRDNAKNTVYLQMNSLKPEDTAVYYCAKDSLVDHVGGYDYWGQGTQVTVSS | low polyreactivity
4 | QVQLVESGGGLVQAGGSLRLSCAASGLTFYHYHMGWYRQAPGKERELVAAITIGGSTYYADSVKGRFTISRDNAKNTVYLQMNSLKPEDTEVYYCAAEPQRDSSGLDYWGQGTQVTVSS | low polyreactivity
5 | QVQLVESGGGLVQAGGSLRLSCAASGFTFISNAMGWYRQAPGKERELVAAISSSGGRTFYADSVKGRFTISRDNAKNTDDLQMNSLKPEDTAVYYCNADRSLLYSRKIEYDYWGQGTQVTVSS | low polyreactivity
6 | QVHLVESGGGLVQAGGSLRLSCAASGVIFSSYAMGWYRQAPGKERELVAAISTGDGSTTYADSVKGRFTISRDNAKNTVYLQMNSLIPEDTAVYYCNVKYRSSYRTDFDYWGQGTQVTVSS | low polyreactivity
7 | QVQLVESGGGLVQAGGSLRLSCAASGLTFYSNAMGWYRQAPGKERELVARISTGGSTYADSEKGRFTISRDNAKNTVYLQMNSLKPEDTSFFYCAKLPPRGIDDEYWGQGTQVTVSS | low polyreactivity
8 | QVQLVESGGGLVQAGGSLRLSCAASGIIFRLYGMGWYRPAPGKAREFVATITWRGGRTNYADSVKGRFTISRDNAKNTVYLLMNSRKPEDTADYYCAKDVRYARSNEYDSWGQGTQVTVSS | low polyreactivity
9 | QVQLVESGGGLVQAGGSLRLSCAASGRIFWHYAMGWYRQAPGKERELVAAISSRGGSTYYADSVKGRFTISRDNAKNTVYLQMNSLKPEDTAVYYCAADRVDGGSYYHSGYWGQGTQVTVSS | high polyreactivity
10 | QVQLVESGGGLVQAGGSLRLSCAASGRTSGGYAMGWYRQAPGNERELVASITWSGDTTYYADSVTGRFTISRDNAKNTVYLQMNSLKPEDTAVYYCATIPGYVYYWQYKYDYWGQGTQVTVSS | low polyreactivity
11 | QVQLVESGGGLVQAGGSLRLSCAASGRIFSLYAMGWYRQAPGKDRELVAAISRGGSTYYADSVKGRFTISRDNAKNTVYLQMNSLKPEDTAVSYCARRYWYPDAFYRYDYWGQGTQVTVSS | low polyreactivity
12 | QVQLVESGGGLVQAGGSLRLSCAASGYIFRKYAMGWYRQAPGKERELVADISSSGGSTYYADSVKGRFTISRDNAKNTVYLQMNSLKPEDTAVYYCAKDRKSSRRITRMDYWGQGTQVTVSS | high polyreactivity
13 | QVQLVESGGGLVQAGGSLRISCAASGSILVFYAMGWYRQAPGKESELVATITGSVGRTSYADSVKGRFTISRDNAKNTVYLQMNSLIPEDTAVYYCAADADTDVFYILQEYDYWGQGTQVTVSS | low polyreactivity
14 | QVQLVESGGGLVQAGGSLRLSCAASGRTFQFYAMGWYRQAPGKERELVAAITYSGDSTYYADSVKGRFTISRDNAKNTVYLQMNSLKPEDTAVYYCAAGVWFYWYEYDYWGQGTQVTVSS | high polyreactivity
15 | QVQLVESRGGLVQAGGSLRLRCAASGSTFGYYAMGWYRQAPGKERELVAGISSGGTTKYADSVKGRFTISRDNEKNTVYLQMNSLKPEDTAVYYCAATVRVYDYWGQGTQVTLSS | high polyreactivity
16 | QDQLVESGGGLVQAGGSLRLSCAASGSTVSYYTMGWYRQAPGKERELVAAINGSGGSTYYADSVKGRFTISRDNAKNNVYLQMNSMKPEDTAVYYCAADIKRVLDIPMYYWGQGTQVTVSS | low polyreactivity

Row | Sequence | polyreactivity (PSR sort gate)
17 | QVQLVESGGGLVQAGGSLRLSCAASGRTFGYYAMGWYRQAPGKERELVAAITRSGDRTYYADSVKGRFTISRDNAKNTVYLQLNSLKPEDTAVYYCARYAYLISDYWGQGTQVTVSS | high polyreactivity
18 | QVQLVESGGGLVQAGGRLRLSCAASGSTFGWYARGWYRQAPGKERELVATISSGGSTYYADSVKGRFTISRDNAKNTVSLQMNSLKPEDTAVYYCAARIGTGVLPGRGANSHMDFWGHGTQVTVSS | low polyreactivity
19 | QVQLVESGGGLVQAGGSLRLSCAASGSIFRSNAMGWYRQAPGKERELVAVIRSGGTTNYADSVKGRFTISRDNAKNTVYLQMNSLKPEDTAVYYCAAYGAHGGVIVVEGDYWGQGTQVTVSS | low polyreactivity
20 | QVQLVESGGGLVQAGGSLRLSCAASGRTSFHYAMGWYRQAPGKERELVAAINWNGGRTYYADSVKGRFTISRDNAKNTVYLQMNSLKPEDTAVYYCAARLSYLGGYDYWGQGTQVTVSS | high polyreactivity
21 | QVQLVESGGRLVQEGGSLRLSCAASGSSLRSYAMGRYRQAPGKERELLAAISGSGDSTYYADSVKGRFTISRDNAKNTVYLQMNSLKPEDTAVYYCNAVFAFNGYVYWGQGTQVTVSS | low polyreactivity
22 | QVQLVESGGGLVQAGGSLRLSCAASGSTFRRYAMGWYRQAPGKERELVATITKRGGSTYYADSVKGRFTISRDNAKNTVYLQMNSLKPEDTAVYYCAADSAYWTYEYWGQGTQVTVSS | high polyreactivity
23 | QDQLVESGGGLFQAGGSLRLSCAASGFTFTSYNMGWYRQAPGKEMELVAGISLSGGDTSYADSVKGRFTISRDNAKNTVYLQMNSMKPEDTAVYFCAKSYVNYAFDSWGHGTQVTVSS | high polyreactivity
24 | QVQLVESGGGLVQAGGSLRLSCAASGRTFTGYVMGWYRQAPGKERELVAVIRYRGGGSYYADSVKGRFTISRDNAKNTVYLQMNSLKPEDTAVYYCARKRVYFGLWMYYWGHGTQVTVSS | high polyreactivity
25 | QVQLVESGGGLVQAGGSLRLSCAASGFSFRYYAMGWYRQAPGKERELVAAISSGGNTRYADSVKGRFTISRDNAKNTVYLQMNSLKPEDTAVYYCARRPGAWKYVYTGDYWGQGTQVTVSS | high polyreactivity
26 | QVQLIESGGGLVQAGGSLRLSCAASGRTFYVNAMGWYRQAPGKERELVAAIRSGGSTSYADSVKGRFTISRDNAKNTVYLQMNSLKPEDTAVYYCAAKSGLDLYYGLGGYWGQGTQVTVSS | high polyreactivity
27 | QVQLVESGGGIVQAGGSLRLSCAASGSIFDNAMGWYRQAPGKERELVAAITSGGITNYADSVKGRFTISRDNAKNTVYLQMNSLKPEDTAVYYCNTLSPTQTKYDYWGQGTKVTVSS | low polyreactivity
28 | QVQLVESGGGLVQAGGSLRLSCAASGFTFGRYAMGWYRQAPGKERELVAAITYTDGSTYYADSVKGRFTISRDNAKNTVYLQMNSLKPEDTAVYYCAATTLSFEGGKYWSKYDYWGQGTQVTVSS | low polyreactivity
29 | QVQLVESGGGLVQAGGSLRLSCAASGSTIAYYTMGWYRQAPGKERELVAAISASGGSTYYADSVKGRFTISRDNAKNTFYIQMNSLKPEDTAVYYCNAESYLTGWWVDYWGQGTQVTVSS | low polyreactivity
30 | QFQLVESGGGLVQAGGSLRLSCAASGSILDGNTMGWYRQAPGKERELVDAISSLATSTYYADSVKGRFTISRDNAKNTVYLQINSLKPEDTAVYYCAALVRRKRTTSGDDYWGQGTQVTVSS | high polyreactivity
31 | QGQLVESGGGLVQAGGSLRLSCAASGSIIRSYAMGWYRQAPGKERELVASISRRGGSTYYADSVKGRFTISRDNAKNTVYLQMNSLKPEDTAVYYCAAVRYNSRVSTTPSEMYYWGQGTQVTVSS | low polyreactivity
32 | QVQLVESGGGLVQAGGSLRLSCAASGSTFSPNAMGWSRQAPGKERELVAAITYRGANTYYADSVKGRFTISRDNAKNTVYLQMNSLKPEDTAVYYCAAEYAYHHVGFGYWGQGTQVTVSS | low polyreactivity
